Patent US20030165543A1 (LOMA LINDA UNIVERSITY, published 2003)

Target: bovine serum albumin (bovine, UniProt P02769 25-607)
Assay: GM1-ELISA binding assay

Chain of bovine serum albumin (P02769 25-607 limits assumed): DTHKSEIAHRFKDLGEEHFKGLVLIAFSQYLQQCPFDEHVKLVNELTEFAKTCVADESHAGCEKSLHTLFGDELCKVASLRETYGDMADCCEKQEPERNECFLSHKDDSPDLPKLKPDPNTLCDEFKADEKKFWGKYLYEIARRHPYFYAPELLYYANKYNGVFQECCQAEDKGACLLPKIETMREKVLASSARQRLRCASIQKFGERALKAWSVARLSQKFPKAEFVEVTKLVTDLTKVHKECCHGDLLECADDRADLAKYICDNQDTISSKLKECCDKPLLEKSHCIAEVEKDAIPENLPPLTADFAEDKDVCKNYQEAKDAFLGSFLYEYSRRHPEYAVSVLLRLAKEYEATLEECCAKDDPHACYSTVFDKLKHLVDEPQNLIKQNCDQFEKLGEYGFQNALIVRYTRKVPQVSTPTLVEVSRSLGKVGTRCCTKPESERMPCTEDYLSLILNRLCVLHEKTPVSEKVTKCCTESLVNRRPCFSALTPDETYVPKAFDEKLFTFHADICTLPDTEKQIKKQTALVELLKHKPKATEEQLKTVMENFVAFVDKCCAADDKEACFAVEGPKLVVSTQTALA

B1: bacterial cholera toxin B subunit (CTB), pentameric (other)
chain: TPQNITDLCAEYHNTQIYTLNDKIFSYTESLAGKREMAIITFKNGAIFQVEVPGSQHIDSQKKAIERMKDTLRIAYLTEAKVEKLCVWNNKTPHAIAAISMAN
- binding result: no binding
